Patent US20230115257A1 (published 2023)
Numbering of substitutions follows the chain as printed.

Tests used:
Assay in all cases: ELISA
[1] = target: SARS-CoV-2 Beta (B.1.351) variant prefusion stabilized spike trimer protein (UniProt P0DTC2 14-1213)
[2] = target: SARS-CoV-2 BA.2 spike trimer variant (SARS-CoV-2 Omicron BA.2, UniProt P0DTC2 16-1213)
[3] = target: SARS-CoV-2 B.1.1.529 spike trimer variant (SARS-CoV-2 B.1.1.529 (Omicron), UniProt P0DTC2 16-1213)

B1: 6-N1-A (antibody, V domains shown)
VH: EVQLQQSGPELVKPGASVKISCKASGYTFTDYYMNWVQQSHGKSLEWIGDINPNNGGIRYNQNFKGKATLTVEKSSSTAYMELRSLTSEDSAVYYCARRQVFYDGYYDYAMDYWGQGTSVTVSS
VL: DIVLTQSPASLAVSLGQRATISCRASQSVSTSSYSYMHWYQQKPGQPPKLLIKYASNLESGVPARFSGSGSGTDFTLNIHPVEEEDTATYFCQHNWEIPPTFGGGTKLEIK
With B1 the EC50 [1] was 5.29 nM.

B2: 4-A22-A (antibody, V domains shown)
VH: EVQLQQSGPELVKPGASVKMSCKASGYTFTSYVMHWVKQKPGQGLEWIGYINPYNDGTEYNEKFKGKATLTSDKSSSTAYMELSSLTSEDSAVYYCAREAYRYFDVWGTGTTVTVSS
VL: DIQMTQSPASLSVSVGETVTITCRASENIYSNLAWYQQKQGKSPQLLVYAATNLAEGVPSRFSGSGSGTQYSLKINSLQSEDFGSYYCQHFWGTPWTFGGGTKLEIK
With B2 the EC50 [1] was 5.97 nM.

B3: 10-J24-A (antibody, V domains shown)
VH: EVQLVESGGGLVKPGGSLKLSCAASGFTFSSYAMSWVRQNPAKRLEWVATISGGGGFTYYPDSVKGRFTISRDNAKNTLYLQMNSLRSEDTAMYYCARDEDGKHDYFDYWGQGTTLTVSS
VL: DIVMTQSHKFMSTSVGDRVSITCKASQDVGTAVAWYQQKPGQSPKLLIYWASTRHTGVPDRFTGSGSGTDFTLTISNVQSEDLADYFCQQYASYPLTFGGGTKLVIK
B3 showed an EC50 [1] of 1.47 nM.

B4: 9-M12-A (antibody, V domains shown)
VH: EVQLVESGGDLVKPGGSLKLSCTASGFTFSSYGMSWVRQTPDKRLEWVTTISSGGGYTYVPDSVKGRFTISRDNAKNTLYLHMSSLKSEDTAMYFCARPLIPTMVEAFDYWGQGTSLTVSS
VL: SIVMTQTPKFLPVSAGDRVTMTCKASQSVGNNVAWYQQKPGQSPKLLIYYASNRYTGVPDRFTGSGSGADFTFTISSVQVEDLAVYFCQQHYSSPFTFGTGTKLEIK
Work on B4 yielded an EC50 [1] of 0.47 nM.

B5: 3-E13-A (antibody, V domains shown)
VH: EVQLQQSGPELVKPGASVKMSCKASGYTFTDYNIHWVKQSHGKSLEWIGYINPNNGGTDYNQKFQGKATLTVNKSSSTAYMELRSLTSEDFAVYYCARGGFYGNYGAYYGMDFWGQGTSVTVSS
VL: DIQMTQSPASLSASVGETVTITCRTSENIYSHLAWYQQTQGKSPQLLVYNAKTLAEGVPSRFSGSGSGTHFSLKINSLQPEDFGSYYCQHHYGIPPEFGGGTKLEIK
Binder B5 has an EC50 [2] of 0.35 nM and an EC50 [3] of 0.35 nM.

B6: 6-C19-A-WT (antibody, V domains shown)
VH: B5 VH with N73D, F91S, A107S
VL: B5 VL with Q45H, H70Q, Y87F
B6 gave an EC50 [2] of 0.36 nM and an EC50 [3] of 0.36 nM.

B7: 2-J9-A (antibody, V domains shown)
VH: B5 VH with F91S
VL: B5 VL with A51T, S63T, H70Q
B7 was tested, and the EC50 [2] was 0.31 nM and the EC50 [3] was 0.4 nM.

B8: 8-N24-A (antibody, V domains shown)
VH: QVQLQQPGAELVKPGASVKVSCKASGYTFTSYWMHWVKQRPGQGLEWIGRIHPSDSDTNYYQKFKGKATLSVDKSSSTAYMQLSSLTSEDSAVYYCAIPLYSYDNSGGYYPMDYWGQGTSVTVSS
VL: DIVMTQSQKFMSTSVGDRVTITCKASQNVRTAVAWYQQKPGQSPKKLIYLASNRHTGVPDRFTGSGSGTDFTLAISNVQSEDLADYFCLQHWNYPFTFGSGTRLEIK
Work on B8 yielded an EC50 [2] of 3.25 nM and an EC50 [3] of 4.19 nM.

B9: 10-B11-A (antibody, V domains shown)
VH: B8 VH
VL: B8 VL
For B9, the EC50 [2] was 0.84 nM and the EC50 [3] was 1.16 nM.

B10: 6-L8-A (antibody, V domains shown)
VH: EVQLQQSVAELVRPGASVKLSCTPSGFNIKNTYMHWMKQRPEQGLEWIGRINPANDDTKYAPKFQDKATITADTSSNTAYLQLSSLTSEDTAIYYCVYDVRWYFDVWGTGTTVTVSS
VL: DVVMTQTPLSLPVSLGDQASISCRSSQGLVHSNGNTYLHWYLQKPGQSPKLLIYKVSNRFSGVPDRFSGSGSGTDFTLKISRVEAEDLGVYFCSQSTHVPPTFGAGTKLELK
In the case of B10, the EC50 [2] is reported as 20.6 nM and the EC50 [3] is reported as 64 nM.

B11: 2-O15-A (antibody, V domains shown)
VH: QVQLQQSGAELVRPGASVKLSCKASGYTFTDCEMHWVKQTPVHGLEWIGVIDPETGDTAYNQKFKGKATLTADKSSSTAYMELRSLTSEDSAVYYCTRRRDYGNPYWYFDVWGAGTTVTVSS
VL: EIVLTQSPALMAASPGEKVTITCSVSSSISSSNLHWYQQKSGTSPKPWIYGTSNLASGVPVRFSGSGSGTSYSLTISSMEAEDAATYYCQQWTSYPYTFGSGTKLEIK
B11 was tested, and the EC50 [1] was 0.59 nM.

B12: 9-P9-A (antibody, V domains shown)
VH: DVKLVESGEGLVKPGGSLKLSCAASGFSFSNFGMSWVRQTPEKRLEWVAYISSGGDYIYYADTVKGRFTISRDNARNTLYLQMSSLKSEDTAIYYCTRGYFDYWGQGTTLTVSS
VL: DVLMTQTPLSLPVSLGDQASISCRSSQSIVHSNGNTYLEWYLQKPGQSPKLLIYTVSNRFSGVPDRFSGSGSGTDFTLKISRVEAEDLGVYYCFQGSHVPYTFGGGTKLEMR
With B12 the EC50 [2] was 0.3 nM and the EC50 [3] was 0.29 nM.

B13: 2-P2-A (antibody, V domains shown)
VH: EVQLQQSGAELVRPGSSVKMSCKTSGYTFTSYGINWVKQRPGQGLEWIGYIYIGNGYTEYNEKFKGKATLTSDTSSSTAYMQLSSLTSEDSAIYFCARGGVDYWGQGTTLTVSS
VL: B12 VL with T55K, M111I, R112K
With B13 the EC50 [2] was 0.5 nM and the EC50 [3] was 0.58 nM.

B14: 5-H22-A (antibody, V domains shown)
VH: QVQLQQSGAELVRPGASVTLSCKASGYTFTDYEMHWMKQTPVHGLEWIGAIDLETGGTVYNQKFKGKAILTADKSSNTAYMALRSLTSEDSAVYYCTREFPHYYGSRYGFPYWGQGTLVTVSA
VL: QIVLTQSPAIMSASPGEKVTITCSASSSVSYMHWLQQKPGTSPKLWIYSTSNLASGVPARFSGSGSGTSYSLTISRMEAEDAATYYCQQRSSYPYTFGGGTKLEIK
With B14 the EC50 [3] was 1.26 nM.

B15: 4-K16-A (antibody, V domains shown)
VH: QIQLVQSGPELKKPGETVKISCKASGYTFTTYGMSWVKQAPGKGLKWMGWMSTYSGVPTYADDFKGRFAFSLETSASTAYLQINNLKNEDTATYFCASGDVGYWGQGTTLTVSS
VL: DIVMTQSQKFMSTSVGDRVSVTCKASQNVGTNVAWYQQKPGQSPKALIYSASYRYSGVPDRFTGSGSGTDFTLTISTVQSEDLAEYFCQQYNIYPSTFGGGTKLEIK
In the case of B15, the EC50 [2] is reported as 3.87 nM and the EC50 [3] is reported as 0.94 nM.

B16: 2-B20-A (antibody, V domains shown)
VH: QIQLVQSGPELKKPGETVKISCKASGYTFTTYGMSWVKQAPGKGLKWMGWINTFSGLPTYADDFNGRFAFSLETSASTAYLQINNLKDEDTATYFCARVKVHDYDGDFYGMDYWGQGTSVTVSS
VL: DVVLTQTPLSLPVNIGDQASISCKSTKSLLNSDGFTYLDWYLQKPGQSPQLLIYLVSNRFSGVPDRFSGSGSGTDFTLKISRVEAEDLGVYYCFQSNYLPLTFGAGTKLELK
With B16 the EC50 [1] was 0.23 nM.

B17: 9-J11-A (antibody, V domains shown)
VH: QVQLQQSGAELVKPGASVKMSCMASGYTFTTYPIEWMKQIHGKSLEWIGNFHPYNDDSKYNEKFKGKATLSVEKSSSTVYLELSRSTSDDSAVYYCARGSYGPYWYFDVWGTGTTVTVSS
VL: DIQMTQSPASLSASVGETVTITCRASGDIHNYLVWYQQKQGKSPQLLVYNAKALADGVPSRFSGSGSGTQYSLKINSLQPDDFGSYYCQHFWSIPYTFGGGTKLEIK
B17 gave an EC50 [2] of 8.21 nM and an EC50 [3] of 0.39 nM.

B18: 6-C19-A (antibody, V domains shown)
VH: QIQLVQSGPELKKPGETVKISCKASGNTFTTAGMQWVQKMPGKGFKWIGWINTHSGEPKYAEDFKGRFAFSLETSASTAYLQISNLKNEDTATYFCARYGDYYYFDCWGQGTTLTVSS
VL: B17 VL with D28N, V34A, A53T, D81E, Y86F, S93T, I94T, Y96W, T97S
For B18, the EC50 [1] was 1.53 nM.

B19: 9-L13-A (antibody, V domains shown)
VH: QVQLKESGPGLVAPSQSLSITCTVSGFSLTSYAISWVRQPPGKGLEWLGLIWTGGGTNYNSALKSRLSISKDNSKSQIFLKMNSLQTDDTARYYCARGPPLIYYGDLYYFDYWGQGTTLTVSS
VL: DIQMTQSPSSLSASLGGKVTITCKASQDINKYIAWYQHKPGKGPRLLIHYTSTLQPGIPSRFSGSGSGRDYSFSISNLEPEDIATYYCLQYDNLWTFGGGTKLEIK
B19 showed an EC50 [2] of 12 nM and an EC50 [3] of 10.9 nM.

B20: 10-I12-A (antibody, V domains shown)
VH: RVQLQQSGPELVRPGTSVKISCKASGYTFTDSYINWVTQRPGQGLDWIGWIFPGNDNTYYNEKFEGKATLTLDKSSSTAYMLLSSLTSEDSAVYFCARSGGLRLGFAYWGQGTLVTVSA
VL: NIVLTQSPASLAVSRGQRATISCRASESVDSYGHSFIHWYQQKPGQPPKILIYLASKLESGVPARFSGSGSRTDFTLTIDPVEADDAATYYCQQNNEDPWTFGGGTKLEIK
With B20 the EC50 [2] was 81.1 nM.

B21: 4-C3-A (antibody, V domains shown)
VH: EVQLQQSGPELVKPGASVKISCKASGYSFTGYYMHWVKQSHGNILDWIGYIYPYNGVSSYNQKFKGKATLTVDKSSSTAYMELRSLTSEASAVYYCARAYGSSYDYYYGLDYWGQGTSVTVSS
VL: DIVLTQSPASLAVSLGQRATISCKASQSVDYDGAGYMNWYQQKPGQPPKLLISSASNLQSGIPARFSGSGSGTDFTLNIHPVEEEDAATYYCQQSNDDPYTFGGGTKLEIK
In the case of B21, the EC50 [2] is reported as 3.07 nM and the EC50 [3] is reported as 0.71 nM.
